The data set has as its system MS2 coat protein. The data set can be described thus: apparent KD of MS2 coat protein; designed switch direction (-1 OFF switch, 1 ON switch): -1; higher = weaker reporter binding. The gist of the method:
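On Illumina chips, designed RNA switches with common flanks were made by stalled E. coli RNA polymerase. Titrations with SNAP-549-labelled MS2 coat protein, doubling from 0.7 or 1.5 nM to 3 µM, were done with no input, with 200 uM small-molecule ligand, or with an oligonucleotide input. Apparent KD is the median per design over clusters, from curve fits of normalised cluster fluorescence.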

[1] abbreviates: Eterna round: R95, input ligand: microRNA oligo, concentration not stated.
Setting [2] is: Eterna round: R95, input ligand: FMN 200 uM.
[3] abbreviates: Eterna round: R95, input ligand: none.
Setting [4] is: input ligand: microRNA oligo, concentration not stated.

Turning to “CUUUUGUGAGGAUAUUAGUAGUUUAUAAUUAAAAUUAUUACUGAGAAGGCACAUGAGGAUCACCCAUGUACCAC [JR_Ex4_Sub030] (Eterna round: R97, puzzle: Exclusion 4)”, the “apparent KD of MS2 coat protein” value is, setting by setting: (input ligand: FMN 200 uM) 92.8 nM; (input ligand: none) 21.8 nM.

Consider “CUUUUUUUUGUGAGGAUAUACUGUUAUUAAAGUUAGUAGAAGGUACAUGAGGAUCACCCAUGUUAAUUACUUUA [JR_BME4_Sub050] (puzzle: Brourd's mod of Exclusion 4)”, for which the “apparent KD of MS2 coat protein” value under setting [1] was 12.9 nM.

Consider “GAAAACGCUGAGGAUAUUUCUGAUCAAAGCAGCAAAGAAGGCAGCACAUGAGGAUCACCCAUGUGGUCUUCAAA [jl-ex6-4.03 ViennaUCT mod] (Eterna round: R97, puzzle: Exclusion 6)”, for which the “apparent KD of MS2 coat protein” value is 907 nM (input ligand: FMN 200 uM) and 32.1 nM (input ligand: none).

Turning to “GAAAACGUAGGAUAUUAAUACUCAGACAUGAGGAUCACCCAUGUUUGGUGGGUCGGAGAAUGAGAAGGGCGAUGAA [EX5 #14] (Eterna round: R97, puzzle: Exclusion 5)”, the “apparent KD of MS2 coat protein” value is, setting by setting: (input ligand: FMN 200 uM) 82.3 nM; (input ligand: none) 89.7 nM.

As for “GAAAAGGCAGAGGAUAUUUCAGAUCAAAGCUGCAAAGAAGGCUGCACAUGAGGAUCACCCAUGUGGUCUUAAAA [Mod of Quesina 5 - Jieux - Exclusion 6] (Eterna round: R97, puzzle: Exclusion 6)”, the “apparent KD of MS2 coat protein” value runs as follows: (input ligand: FMN 200 uM) 176 nM; (input ligand: none) 18.4 nM.

With “GAAAAGGUAGAGGAUAUUUCAGAUCAAAGCUGCAAAGAAGGCUGCACAUGAGGAUCACCCAUGUGGUCUUUAAA [Mod of Quesina 10 - Jieux - Exclusion 6] (Eterna round: R97, puzzle: Exclusion 6)”, the “apparent KD of MS2 coat protein” value turned out to be 70.1 nM (input ligand: FMN 200 uM) and 17.6 nM (input ligand: none).

On to “GAAAAGGUAGGAUAUACGAAAAAAAAGGGUAAAAAAAAAACACAUGAGGAUCACCCAUGUAGAAGGACCAAAAG [salish99_ex2_r3_062] (puzzle: Exclusion 2)”, for which the “apparent KD of MS2 coat protein” value under setting [2] worked out at 44.4 nM, the “apparent KD of MS2 coat protein” value under setting [1] turned out to be 32.4 nM and the “apparent KD of MS2 coat protein” value under setting [3] came to 34 nM.

“GAAAAGGUAGGAUAUAUGAAAAAAAAGGGUAGAAAAAAAACACAUGAGGAUCACCCAUGUAGAAGGACCAAAAG [salish99_ex2_r3_056] (puzzle: Exclusion 2)”: the “apparent KD of MS2 coat protein” value under setting [2] came to 37.2 nM, the “apparent KD of MS2 coat protein” value under setting [1] amounted to 46.3 nM and the “apparent KD of MS2 coat protein” value under setting [3] turned out to be 26.9 nM.

For the sequence “GAAAAGUGAGGAUAUGGUAAAAGAAAAAGAAAAAGAAAACUCCAGAAGGCACAUGAGGAUCACCCAUGUAAAAG [salish99_ex4_r3_005] (puzzle: Exclusion 4)”, the “apparent KD of MS2 coat protein” value is 26.9 nM under setting [2], 19.4 nM under setting [1] and 23.6 nM under setting [3].

Take “GAAAAGUGAGGAUAUUGUUUUUUUUUGAAAACGGGAGAGGGCAAGAAGGCACAUGAGGAUCACCCAUGUAAGGU [Alacar 2] (Eterna round: R97, puzzle: Exclusion 4)”: the “apparent KD of MS2 coat protein” value amounted to 66.4 nM (input ligand: FMN 200 uM) and 44.1 nM (input ligand: none).

As to “GAAAAUGUGGAGGAUAUCGACUUCGAAAGAAGUCGAGAAGGCCACACAUGAGGAUCACCCAUGUGAUGCCAAUA [Omei Ex6 H9] (Eterna round: R97, puzzle: Exclusion 6)”, the “apparent KD of MS2 coat protein” value was 443 nM (input ligand: FMN 200 uM) and 284 nM (input ligand: none).

Regarding “GAAAAUGUGGAGGAUAUCGACUUCGAAAGAAGUCGAGAAGGCCACACAUGAGGAUCACCCAUGUGUGCCUUAAA [Omei Ex6 H3] (Eterna round: R97, puzzle: Exclusion 6)”, the “apparent KD of MS2 coat protein” value by setting is: (input ligand: FMN 200 uM) 23.9 nM; (input ligand: none) 12 nM.

In the case of “GAAAAUGUGGAGGAUAUCGACUUCGAAAGAAGUCGAGAAGGCCACACAUGAGGAUCACCCAUGUGUUCCUUCAA [Omei Ex6 H2] (Eterna round: R97, puzzle: Exclusion 6)”, the “apparent KD of MS2 coat protein” value (input ligand: FMN 200 uM) came out at 569 nM and the “apparent KD of MS2 coat protein” value (input ligand: none) stood at 52.2 nM.

For the sequence “GAACAGGUAGGAUAUACUGGACGCGACAUGAGGAUCACCCAUGUCCUCGGCAUAGGCGCUGUAGAAGGGCCUAAAA [Eternabot (Original) Solution 29] (Eterna round: R97, puzzle: Exclusion 5)”, the “apparent KD of MS2 coat protein” value by setting is: (input ligand: FMN 200 uM) 29.9 nM; (input ligand: none) 30.2 nM.

Consider “GAAGGACGAGGAUAUGUAUGGGACAGCCGAGGAAAAUCUCAACAUGAGGAUCACCCAUGUAGAAGGCGUGCCCG [Eternabot (Original) Solution 44] (Eterna round: R97, puzzle: Exclusion 2)”, for which the “apparent KD of MS2 coat protein” value by setting is: (input ligand: FMN 200 uM) 16.4 nM; (input ligand: none) 14.1 nM.

In the case of “GAAGUGCACAUGAGGAUCACCCAUGUGGGUGAGCCGUGCCUGAAGGAUAUGGCUCCCGAUGGAGACCAGAAGGUCAGUAAAUAA [Ededor] (Eterna round: R96, puzzle: Exclusion NG 3)”, the “apparent KD of MS2 coat protein” value is 367 nM (input ligand: FMN 200 uM), 276 nM under setting [4] and 1030 nM (input ligand: none).

“GAAUACAAGUAAAGAUCCUACAUGAGGAUCACCCAUGUGCUCGUCUUGUAAAGUACUAUCACGAAAGUGAUAGUACA [Mat - Sensor v3 - turn-off var 1 - Eli Mod - D88] (puzzle: Sensor v3, turn-off variant 1)”: the “apparent KD of MS2 coat protein” value under setting [2] was found to be 53.8 nM, the “apparent KD of MS2 coat protein” value under setting [1] came to 159 nM and the “apparent KD of MS2 coat protein” value under setting [3] was 47.1 nM.

On to “GAAUAGAGAGGAUAUGCAAUGAAGGUAGUACGAUAUAUCUGACAUGAGGAUCACCCAUGUAGAAGGCUCAGAUC [EX2 #8] (Eterna round: R97, puzzle: Exclusion 2)”, for which the “apparent KD of MS2 coat protein” value (input ligand: FMN 200 uM) was found to be 29.2 nM and the “apparent KD of MS2 coat protein” value (input ligand: none) worked out at 29.3 nM.

With “GAAUAGCAAGCGAGAUCCCACAUGAGGAUCACCCAUGUGCUCGUCUUAUAAAGUACUGUGACGAUAGUCACGGUACA [Mat - Sensor, turn-off var - Eli Mod - D13] (Eterna round: R97, puzzle: Sensor, turn-off variant 1)”, the “apparent KD of MS2 coat protein” value was determined as 16.5 nM (input ligand: FMN 200 uM) and 14.9 nM (input ligand: none).

On to “GAAUAGCGAGGAUAUACAUGAGGAUCACCCAUGUGAUCCUUAGGCUGUUCAAGCCUAUGUAGAAGGCGCAAAUU [jl-ex3.4.56 ViennaUCT mod] (Eterna round: R97, puzzle: Exclusion 3)”, for which the “apparent KD of MS2 coat protein” value (input ligand: FMN 200 uM) was 86.2 nM and the “apparent KD of MS2 coat protein” value (input ligand: none) is 335 nM.

“GAAUGAGAGCAGGAUAUCUUAUAAGUGUAUGAAAGAGAAGGGCUCACAUGAGGAUCACCCAUGUGGUCCUAGAU [jl-ex6-4.86 jandersonlee mod] (Eterna round: R97, puzzle: Exclusion 6)”: the “apparent KD of MS2 coat protein” value (input ligand: FMN 200 uM) amounted to 329 nM and the “apparent KD of MS2 coat protein” value (input ligand: none) came out at 41.7 nM.

On to “GAAUUAGUAGGAUAUACAUGAGGAUCACCCAUGUCUCAAACCAUGUACAGGAGAGGCUGUAGAAGGACUGAACA [Eternabot (Original) Solution 19] (Eterna round: R97, puzzle: Exclusion 3)”, for which the “apparent KD of MS2 coat protein” value amounted to 36 nM (input ligand: FMN 200 uM) and 31.7 nM (input ligand: none).

For “GACCGGACGUGGUCAGGUAACAUGAGGAUCACCCAUGUAGGUCUAGGAACAAGCCUUUUGUAGGCUCGUCUUAUAAA [JR_SV3TOV1_Sub059] (puzzle: Sensor v3, turn-off variant 1)”, the “apparent KD of MS2 coat protein” value under setting [2] came to 47.5 nM, the “apparent KD of MS2 coat protein” value under setting [1] came out at 36.1 nM and the “apparent KD of MS2 coat protein” value under setting [3] was 63.6 nM.

For “GACCUCACGGUCAGGAUAUCAGAACGGAAUGCGCAUGAGAAGGGACAUGAGGAUCACCCAUGUGGGCUCGUCGC [Eddionce] (puzzle: Brourd's mod of Exclusion 4)”, the “apparent KD of MS2 coat protein” value under setting [2] is 21.6 nM, the “apparent KD of MS2 coat protein” value under setting [1] turned out to be 13.9 nM and the “apparent KD of MS2 coat protein” value under setting [3] came out at 17.9 nM.

As for “GACGCUAAAGGAUAUACAUGAGGAUCACCCAUGUUGAGGAAGGUUAGAUGAGGAGUAAGUAGAAGGUUAGACGA [JR_Exclu3_Sub091] (puzzle: Exclusion 3)”, the “apparent KD of MS2 coat protein” value by setting is: under setting [2], 32 nM; under setting [1], 27.4 nM; under setting [3], 30.8 nM.

Take “GACUAGGCAGGAUAUACAUGAGGAUCACCCAUGUGUCUGCGUUAAGCACGUGAAGACGGUAGAAGGGCCUACAC [ChP 13.04.2015 #18] (puzzle: Exclusion 3)”: the “apparent KD of MS2 coat protein” value under setting [1] is 13 nM.

In the case of “GACUCUCCCGUGAGGAUAUAUGAGGCCAUGAUUCCAUAGAAGGCACAUGAGGAUCACCCAUGUCGGGCAUAGCC [Eternabot (L2) Solution 8] (Eterna round: R97, puzzle: Brourd's mod of Exclusion 4)”, the “apparent KD of MS2 coat protein” value runs as follows: (input ligand: FMN 200 uM) 25.7 nM; (input ligand: none) 41.3 nM.

Consider “GACUGUCGAGAGGAUAUCUUUCCCAAGCGGGUCAGAGAAGGCUUGACAUGAGGAUCACCCAUGUUGAUUGCUAG [EX6 C.23] (Eterna round: R97, puzzle: Exclusion 6)”, for which the “apparent KD of MS2 coat protein” value by setting is: (input ligand: FMN 200 uM) 389 nM; (input ligand: none) 140 nM.

In the case of “GAGAAAUUAUAGGAUAUCGUAUGGAUAAUUUAACGAGAAGGAUGAACAUGAGGAUCACCCAUGUGGUAUCAUGG [JL-ex6-3.13] (puzzle: Exclusion 6)”, the “apparent KD of MS2 coat protein” value worked out at 262 nM under setting [2], 327 nM under setting [1] and 331 nM under setting [3].

“GAGAAUUUAUAGGAUAUCGUAUGCAUAAUUUAACGAGAAGGAUGAACAUGAGGAUCACCCAUGUGGUAUCAUGG [salish99_ex6_r3_001] (puzzle: Exclusion 6)”: the “apparent KD of MS2 coat protein” value was 88.9 nM under setting [2], 192 nM under setting [1] and 122 nM under setting [3].

For the sequence “GAGCAGCCGAUAGGAUAUUCCGAGCUAAAGAGCAGUAGGACAUGAGGAUCACCCAUGUGUGCAUGGAAGAAGGGUCACUUCCAG [Eternabot solution 23] (Eterna round: R96, puzzle: Exclusion NG 2)”, the “apparent KD of MS2 coat protein” value reads like this: (input ligand: FMN 200 uM) 25.8 nM; under setting [4], 24.2 nM; (input ligand: none) 30.7 nM.

These data come from the supplement of paper PMC9170038.
